Assay results published in PMC4639866.

Biological target: GST::BubR1 [1–337] (Drosophila)
Assay: pull-down

B1: GFP::Fzy-DYY* (natural protein)
chain: MSQFNFVSDLQNALIMDGETRGPAPRWKKKLEASLNGSVNTTRSVLSVSYNTSFSGVQAPTKTPGKSSEGKTKKSNTTPSKTPGGGDRFIPNRAATNFELAHFLVNKDSGDKSDEENDKATSSNSNESNVQASAHKGDRQKLISEVAQVGDSKGGRILCYQNKAPAAPETHNNPLKVVYSIKTPISTKSGSRYIPTTSERILDAPDFINAAALNLMDWSADNIVAVALGSCVYLWNAQTGNIEQLTEFEEGDYAGSLSWIQEGQILAIGNSTGAVELWDCSKVKRLRVMDGHSARVGSLAWNSFLVSSGSRDGTIVHHDVRAREHKLSTLSGHTQEVCGLKWSTDFKYLASGGNDNLVNVWSAASGGVGTATDPLHKFNDHQAAVRALAWCPWQPSTLASGGGTADRCIKFWNVNNGTLMKSVDSKSQVCSLLFSRHYKELISAHGFANNQLTIWKYPTMVKQADLTGHTSRVLQMAMSPDGSTVISAGADETLRLWNCFAPDPLASKKAVSTSKGKQSVFRQSIR
**Q.** B1 was tested. Which decrease of in vitro binding efficiency against wild-type Fzy did it give?
**A.** 50%
